In PMC10785756, “Hydrolysis of Antimicrobial Peptides by Extracellular Peptidases in Wastewater” (Environmental Science & Technology, 2023):

Key:
[1] = test system: extracellular wastewater peptidases (pool I extracts from WWTP influents); test: Absolute quantification of transformation products (TPs) formed during AMP incubation with wastewater extracts; type: in vitro ADME
Protocol: We thawed enzyme extracts and transferred 1.35 mL to 2 mL protein LoBind Eppendorf tubes. For autoclaved controls, extract aliquots of 1.5 mL were autoclaved for 20 min at 121 °C and 2 bar (Wolf Sanoclav LaS-MCS-J) and 1.35 mL of the autoclaved extracts were transferred into 2 mL protein LoBind Eppendorf tubes. We then spiked 150 μL of the AMP stock solution containing all AMPs at 10 μg/mL to the enzyme extracts or 1.35 mL of ultrapure water. […] Triplicate incubations were conducted for the autoclaved and active extracts with spiked AMP. After AMP spiking, we mixed the solutions by inverting the vials and incubating them at 20 °C under horizontal shaking at 300 rpm. To stop enzymatic reactions at pre-defined sampling time points (i.e., 2 min, 30 min, 1 h, 2 h, and 4 h), we transferred 150 μL of the incubation solution to 450 μL of acetonitrile containing 1% (v/v) formic acid in 1.5 mL protein LoBind Eppendorf tubes, mixed the resulting solution by inverting the tube and by horizontally shaking it at 300 rpm for 2 min at 20 °C, and centrifuged samples at 16,000g for 1 min. This protocol step was conducted according to Luther et al.[9] We then transferred the supernatant into a fresh 1.5 mL protein LoBind Eppendorf tube and dried it in a SpeedVac vacuum concentrator (30 °C for approximately 6 h). To resolubilize AMPs, we added 150 μL of water containing 5% (v/v) acetonitrile and 0.1% (v/v) formic acid, vortexed the samples, and centrifuged them for 10 s at 1000g at room temperature. We transferred the solution into QuanRecovery HPLC vials (Waters, 186009186) and stored the samples at −20 °C until analysis. For method development, selected (and indicated) samples were sonicated (Sonorex Super RK 106, Bandelin, max 480 W) for 5 min at different steps of the sample preparation process.
We analyzed AMPs using UHPLC (Thermo Scientific Dionex Ultimate 3000) equipped with a Waters XSelect PREMIER CSH C18 column (article number: 186009870) coupled to HRMS (Thermo QExactive). […] We used Skyline (version 20.2.0.343) to analyze the raw data. Criteria for parent peptides and hydrolysis product identification were set as described before:[31]m/z deviation <2 ppm, MS/MS fragments with m/z deviation <5 ppm, and reasonable chromatographic peak shape. For products, the peak area had to either increase throughout the incubation experiment or first increase and then decrease.
To learn about the enzymatic hydrolysis pathways of AMPs that we found to be rapidly biotransformed by enzymes in wastewater extracts, we predicted all products of single peptide bond hydrolysis reactions and screened our data-dependent high-resolution mass spectrometry data for experimental evidence in support of the predicted hydrolysis products. These analyses were conducted for the AMPs with the highest biotransformation extents (i.e., >0.5 in at least two WWTPs), namely, cecropin P1, omiganan, and R8. The following requirements for transformation products (TPs) were defined: at least three amino acids, peak area either increases during the incubation experiment or first increases and then decreases, peak area exceeds that in AMP-free enzyme extract by >5-fold and that in spiked autoclaved extracts by >6-fold, and mass deviation <2 ppm from the calculated exact mass. Mass lists, mass deviations, and retention times of all TPs can be found in Tables S6–S11. We further predicted TPs formed via exocleavage mechanisms (i.e., cleavage of one or two terminal amino acids simultaneously from the C- and N- terminus of the peptide) and screened for these TPs in the HRMS data.
For cecropin P1, we performed absolute quantification for TPs II, III, IV, V, VI, and X and found the highest concentrations for TP III. Up to 8.8% of spiked cecropin P1 is converted to TP III during incubations with wastewater extract. For TP II, the conversion ranges from 3.7–5.7%, and for TP V and VI, conversions range between 1.5 and 4.9 and 2.1 and 2.9%, respectively. […]

[2] = AMP incubation with autoclaved wastewater extracts (abiotic removal / adsorption control); type: physicochemical; settings: wastewater extracts (pool I influent)
Protocol: We thawed enzyme extracts and transferred 1.35 mL to 2 mL protein LoBind Eppendorf tubes. For autoclaved controls, extract aliquots of 1.5 mL were autoclaved for 20 min at 121 °C and 2 bar (Wolf Sanoclav LaS-MCS-J) and 1.35 mL of the autoclaved extracts were transferred into 2 mL protein LoBind Eppendorf tubes. We then spiked 150 μL of the AMP stock solution containing all AMPs at 10 μg/mL to the enzyme extracts or 1.35 mL of ultrapure water. […] Triplicate incubations were conducted for the autoclaved and active extracts with spiked AMP. After AMP spiking, we mixed the solutions by inverting the vials and incubating them at 20 °C under horizontal shaking at 300 rpm. […]
We analyzed AMPs using UHPLC (Thermo Scientific Dionex Ultimate 3000) equipped with a Waters XSelect PREMIER CSH C18 column (article number: 186009870) coupled to HRMS (Thermo QExactive). […]
In parallel to AMP incubations with active enzyme extracts, we conducted AMP incubations with autoclaved enzyme extracts to control for abiotic removal (e.g., due to adsorption to components in wastewater extracts). Autoclaving decreased the peptidase activity, as measured with the above-mentioned fluorogenic probe-based assay, of wastewater extracts to <3% of their original activity. […] We determined the AMP concentrations in unspiked enzyme extracts, which were below the limit of quantification (LOQ) for all AMPs in all WWTPs.

[3] = test system: extracellular wastewater peptidases (pool I extracts from WWTP influents); test: AMP incubation with active dissolved extracellular wastewater extracts (pool I) from WWTP influents; type: in vitro ADME
Protocol: We took samples from four municipal WWTPs in Austria ([…], and D). […] Where existing, we sampled the following five stages along the wastewater treatment process: influent, primary clarification tank, high-load and low-load aeration tanks, and effluent. […] We took 2 × 500 mL grab samples at each stage using a plastic beaker. We transferred the samples into 500 mL glass bottles leaving roughly one-third of the bottle empty, transported them to the lab, and pooled duplicate samples for further processing. Enzyme extraction started within 1 h after sampling. For total suspended solid (TSS) determination, we filtered 20 mL of each sample through a preweighed, dry GF/F Whatman glass microfiber filter (Sigma-Aldrich, WHA1825047) using a vacuum filtration system, dried the filters at 105 °C for 2 h, and determined the TSS contents from the weight difference. […] Otherwise, the extraction process was the same for pools I and II. All extractions were performed in triplicate, and extracts were kept on ice until further use. […] Triplicate incubations were conducted for the autoclaved and active extracts with spiked AMP. […] This protocol step was conducted according to Luther et al.[9] We then transferred the supernatant into a fresh 1.5 mL protein LoBind Eppendorf tube and dried it in a SpeedVac vacuum concentrator (30 °C for approximately 6 h). […] We transferred the solution into QuanRecovery HPLC vials (Waters, 186009186) and stored the samples at -20 °C until analysis. For method development, selected (and indicated) samples were sonicated (Sonorex Super RK 106, Bandelin, max 480 W) for 5 min at different steps of the sample preparation process. We analyzed AMPs using UHPLC (Thermo Scientific Dionex Ultimate 3000) equipped with a Waters XSelect PREMIER CSH C18 column (article number: 186009870) coupled to HRMS (Thermo QExactive). We injected 10 μL of each sample and applied a flow rate of 0.4 mL/min using the following eluent gradient (A: ultrapure water, B: […] Detection parameters were chosen as follows: […] We used Skyline (version 20.2.0.343) to analyze the raw data. […] For products, the peak area had to either increase throughout the incubation experiment or first increase and then decrease.

Substance: cecropin P1 (SWLSKTAKKLENSAKKRISEGIAIAIQGGPR; UniProt P14661 14-44, looked up) [AMP from the parasitic nematode Ascaris suum; linear peptide of canonical amino acids]
- share of spiked AMP concentration that could be transformed into the selected TPs, considering the maximum sorption potential of each TP [1]: up to 31.6%
- sum of quantified TPs as share of the initially spiked AMP concentration [1]: 22.8%
- spiked AMP removed by sorption [2]: up to 70%
- biotransformation extent (eq 1, from concentrations in active and autoclaved extracts) [3]: > 0.5
- removal by biotransformation in active wastewater extracts (in words) [3]: rapidly removed to nonquantifiable concentrations
- concentration after 30 min of incubation in active extracts ([3]; pool I influent extracts from all tested WWTPs, 20 °C, HPLC-HRMS): below the LOQ
- detectable removal between first sampling time point and 30 min in active extracts ([3]; pool I influent extracts, WWTPs A-D, all AMPs spiked together (150 μL of 10 μg/mL into 1.35 mL extract), 20 °C, 300 rpm, first point 2 min, then 30 min, HPLC-HRMS, triplicate incubations, maximum over WWTPs, limited by LOQ): up to 85%
